5 molecules from patent US20220372114A1 (CURIA IP, published 2022) can be followed below.

Numbering of substitutions follows the chain as printed. “And” between values parts separate entries of the source, which are not always exact repeats. Equal values may be shown once.

Assay [1] has as its target SARS-CoV-2 (WIV02 isolate) prefusion stabilized spike trimer protein (SARS-CoV-2 (WIV02 isolate), UniProt P0DTC2 14-1213). The assay is described as follows: ELISA.
Assay [2] concerns the target SARS-CoV-2 spike protein on live wild-type virus (SARS-CoV-2, UniProt P0DTC2 14-1273). Put plainly: cell-based or functional assay.

B1: 4-K13-A (antibody, V domains shown)
VH: QAYLQQSGAELVRPGASVKMSCKASGYTFTSYTVHWVKQTPRQGLEWIGAIYPGNVDTSYNQNFKGKATLTVDKSSSTAYMQLSSLTSEDSAVYFCARDGYYAMDYWGQGTSVTVSS
VL: not shown
Regarding B1, the binding result in assay [1] is reported as “binds”.

B2: 5-P24-A (antibody, V domains shown)
VH: QAYLQQSGAELVRPGASVKMSCKASGYTFTSYSMHWVKQTPRQGLEWIGAIYPGNGDTSYTQKFKGKATLTVDKSSSTAYMQLSSLTSEDSAVYFCARDYSNYPFDYWGQGTTLTVSS
VL: not shown
As to B2, the binding result in assay [1] is on record as “binds”.

B3: 10-L12-A (antibody, V domains shown)
VH: B2 VH with T61N, A97T
VL: DIVLTQSPASLAVSLGQRATISCRASKSVSTSGYSYLHWYQQKPGQPPKLLIYLASNLESGVPARFSGSGSGTDFTLNIHPVEEEDAATYYCQHSRELPPTFGGGTKLEIK
Consider B3, for which, in assay [1], the binding result is “binds”.

B4: 7-B10-A (antibody, V domains shown)
VH: EVQLVESGGGLVQPKGSLKLSCAASGFTFNTYAMHWVRQAPGKGLEWVARIRSKSSNYARYYADSVKDRFTISRDESQSMLYLQMNNLKTEDTAMYYCVRDHDYYGSSYWFAYWGQGTLVTVSA
VL: DVVMTQTPLSLPVSLGDQASISCSSSQSLVHNNGNTYLHWYLQKPGQSPKLLIYKVSNRFSGVPDRFSGSGSGTDFTLKISRVEAEDLGVYFCSQSTHVPWTFGGGTKLEIK
Turning to B4, the binding result in assay [1] was “binds”.

B5: 10-B13-A (human Fc IgG2 chimera) (antibody, V domains shown)
VH: QVQLQQSGAELVKPGASVKISCKASGYAFSNYWMNWVKQRPGKGLEWIGQIYPGDGDTNYNGNFKGKATLTADKSSSTAYIQLSSLTSEDSAVYFCGRGFIATVVEVFDHWGLGTTLTVSS
VL: DIQMTQTTSSLSASLGDRVTISCRASQDISNYLNWYQQKPDGTVKLLIYYTSRLQSGVPSRFSGSGTGTDYSLTISNLEQEDIATYFCQQGNTLPWTFGGGTKLEIK
As for B5, in assay [2], the “IC50, BSL3 Vero E6 infection plaque assay” value was 0.21 µg/mL and 1.4 nM.
